Results on four molecules are retold here after patent US20210324099A1 (Chugai, published 2021).

For assay [1], the target named is T1, hFcgRIIb (human, UniProt P31994 43-217).
T1 construct: extracellular domain; also called human FcγRIIb
T1 sequence (looked up): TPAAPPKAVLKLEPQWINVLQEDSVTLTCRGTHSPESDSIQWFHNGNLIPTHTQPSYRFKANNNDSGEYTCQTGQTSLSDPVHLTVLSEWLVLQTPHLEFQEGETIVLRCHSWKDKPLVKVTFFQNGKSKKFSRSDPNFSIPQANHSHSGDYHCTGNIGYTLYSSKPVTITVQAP
Nature of the assay: SPR 25C; relative to A375-G1T3/B167-Lamlib.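 Further: SPR with antibody captured on an anti-human Fab-lambda chip, human FcγR analyte at 8 nM for FcγRIa or 1000 nM for the others, pH 7.4, FcγR RU per captured antibody unit.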

The target in assay [2] is T2, hFcgRIIaH (human, UniProt P12318 34-217).
T2 construct: extracellular domain; also called human FcγRIIa type H (H131)
T2 sequence (looked up): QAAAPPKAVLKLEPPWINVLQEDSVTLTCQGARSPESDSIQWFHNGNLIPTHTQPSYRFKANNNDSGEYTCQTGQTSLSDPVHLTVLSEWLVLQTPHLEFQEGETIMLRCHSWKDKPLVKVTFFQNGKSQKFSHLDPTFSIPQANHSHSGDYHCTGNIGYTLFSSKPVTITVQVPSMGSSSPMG
Nature of the assay: SPR 25C; relative to A375-G1T3/B167-Lamlib.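 Further: SPR with antibody captured on an anti-human Fab-lambda chip, human FcγR analyte at 8 nM for FcγRIa or 1000 nM for the others, pH 7.4, FcγR RU per captured antibody unit.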

The target in assay [3] is T3, hFcgRIIIaV (human, UniProt P08637 17-208).
T3 construct: extracellular domain; also called human FcγRIIIa allotype V158
T3 sequence (P08637 17-208 F176V): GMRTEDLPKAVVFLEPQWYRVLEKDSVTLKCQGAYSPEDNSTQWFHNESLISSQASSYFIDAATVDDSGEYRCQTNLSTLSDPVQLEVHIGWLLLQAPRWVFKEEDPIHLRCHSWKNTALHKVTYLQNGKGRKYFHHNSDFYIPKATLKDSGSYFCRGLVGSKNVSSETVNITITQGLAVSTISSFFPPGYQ
The experiment in a line: SPR 25C; relative to A375-G1T3/B167-Lamlib.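 Further: SPR with antibody captured on an anti-human Fab-lambda chip, human FcγR analyte at 8 nM for FcγRIa or 1000 nM for the others, pH 7.4, FcγR RU per captured antibody unit.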

The target in assay [4] is T4, hFcgRIIaR (human, UniProt P12318 34-217).
T4 construct: extracellular domain; also called human FcγRIIa type R (R131)
T4 sequence (looked up): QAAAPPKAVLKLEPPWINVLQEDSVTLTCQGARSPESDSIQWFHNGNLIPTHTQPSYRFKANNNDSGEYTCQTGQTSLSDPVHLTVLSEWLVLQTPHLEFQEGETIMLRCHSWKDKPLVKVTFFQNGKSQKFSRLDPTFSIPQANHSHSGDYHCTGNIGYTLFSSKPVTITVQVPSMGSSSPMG
Nature of the assay: SPR 25C; relative to A375-G1T3/B167-Lamlib.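 Further: SPR with antibody captured on an anti-human Fab-lambda chip, human FcγR analyte at 8 nM for FcγRIa or 1000 nM for the others, pH 7.4, FcγR RU per captured antibody unit.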

Assay [5] has as its target T5, hFcgRIIIaF (human, UniProt P08637 17-208).
T5 construct: extracellular domain; also called human FcγRIIIa allotype F158
The experiment in a line: SPR 25C; relative to A375-G1T3/B167-Lamlib.

Assay [6] concerns the target T6, hFcgRIa (human, UniProt P12314 16-292).
T6 construct: extracellular domain; also called human FcγRIa; FcγRI
Nature of the assay: SPR 25C; relative to A375-G1T3/B167-Lamlib.

The target of assay [7] is T1, hFcgRIIb. Nature of the assay: SPR 25C.
Procedure: (§1) Biacore T200 (GE Healthcare) was used to evaluate the binding activity to the respective human Fcγ receptor (hereafter referred to as FcγR). Measurement was performed at 25° C. using 50 mM phosphate, 150 mM NaCl, 0.05 w/v %-P20, pH 7.4 as buffer. About 1000 RU of antibody was captured using a sensor chip immobilized with CaptureSelect™ Human Fab-lambda Kinetics Biotin Conjugate (Thermo Fisher Scientific) as a molecule for ligand capturing. Human FcγR was diluted to 8 nM for FcγRIa and 1000 nM for other FcγR in the measurement buffer, and it was interacted to the captured antibody. The binding activity of each antibody to FcγR was assessed by calculating the binding amount of FcγR (RU) per unit amount of antibody using Biacore T200 Evaluation Software 2.0.
For assay [8], the target named is T2, hFcgRIIaH. Nature of the assay: SPR 25C.
Procedure: as §1
Assay [9] deals with T3, hFcgRIIIaV. The experiment in a line: SPR 25C.
Procedure: as §1
Assay [10] concerns the target T4, hFcgRIIaR. Nature of the assay: SPR 25C.
Procedure: as §1
The target in assay [11] is T5, hFcgRIIIaF. Nature of the assay: SPR 25C.
Procedure: as §1
Assay [12] addresses T6, hFcgRIa. Nature of the assay: SPR 25C.
Procedure: as §1
The target of the next assay is human FcRn (human, UniProt P55899 24-290; P61769 21-119, limits assumed). The experiment in a line: SPR 25C pH 6.0, steady state.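 Further: antibody captured on chip via anti-human Fab-lambda ligand, human FcRn injected as analyte in 50 mM phosphate buffer with 150 mM NaCl and P20.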
Sequence of human FcRn (P55899 24-290 limits assumed, chain 1 of 2): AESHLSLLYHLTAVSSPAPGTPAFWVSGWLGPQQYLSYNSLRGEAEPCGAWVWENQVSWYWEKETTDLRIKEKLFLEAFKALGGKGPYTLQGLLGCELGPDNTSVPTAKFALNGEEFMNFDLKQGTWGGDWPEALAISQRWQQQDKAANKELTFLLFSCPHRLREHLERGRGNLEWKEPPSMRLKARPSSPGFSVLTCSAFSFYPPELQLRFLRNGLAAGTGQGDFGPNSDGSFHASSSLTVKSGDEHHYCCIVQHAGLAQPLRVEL
Sequence of human FcRn (P61769 21-119 limits assumed, chain 2 of 2): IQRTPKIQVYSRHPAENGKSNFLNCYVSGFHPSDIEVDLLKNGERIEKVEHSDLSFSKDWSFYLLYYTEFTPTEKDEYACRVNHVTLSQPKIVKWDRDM

As usually defined, the Kd is the equilibrium constant for the complex coming apart.
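Wherever binding per 1RU of antibody is given: biacore SPR with antibody captured on an anti-human Fab lambda chip, human FcγR injected at 1000 nM (FcγRIa at 8 nM) in pH 7.4 phosphate buffer.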

T6 sequence (P12314 16-292): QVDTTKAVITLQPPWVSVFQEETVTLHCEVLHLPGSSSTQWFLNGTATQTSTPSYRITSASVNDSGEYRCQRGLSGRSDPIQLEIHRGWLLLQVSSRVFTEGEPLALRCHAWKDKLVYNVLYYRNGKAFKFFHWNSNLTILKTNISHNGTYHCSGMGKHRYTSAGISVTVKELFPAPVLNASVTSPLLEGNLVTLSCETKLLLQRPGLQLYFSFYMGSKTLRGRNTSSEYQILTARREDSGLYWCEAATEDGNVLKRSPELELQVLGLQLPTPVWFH
T5 sequence (P08637 17-208): as the sequence (P08637 17-208 F176V) above, with V160F counted along it
Procedure for human FcRn: Biacore T200 (GE Healthcare) was used to assess the binding activity to human FcRn. Measurement was performed at 25° C. using 50 mM phosphate, 150 mM NaCl, 0.05 w/v %-P20, pH 6.0 as buffer. […] About 400 RU of antibody was captured using a sensor chip immobilized with CaptureSelect™ Human Fab-lambda Kinetics Biotin Conjugate (Thermo Fisher Scientific) as a molecule for ligand capturing, followed by the binding of human FcRn diluted in measuring buffer. The activity of the respective antibodies to bind FcRn was assessed by calculating KD (mol/L) by the steady-state model using Biacore T200 Evaluation Software 2.0.

B1: A375-SCF032/B167-Lamlib (antibody, human IgG1, lambda)
heavy: EVQLVESGGGLVKPGGSLRLSCAASGFTFSTFTMNWVRQAPGKGLEWVSSISSKSTYIEYADSFKVRFTISRDNAKNSLYLQMNSLRAEDTAVYYCARYGAKNFLNWVFDYWGQGTLVTVSSASTKGPSVFPLAPSSKSTSGGTAALGCLVKDYFPEPVTVSWNSGALTSGVHTFPAVLQSSGLYSLSSVVTVPSSSLGTQTYICNVNHKPSNTKVDKKVEPKSCDKTHTCPPCPAPEYLGGDSVFLFPPKPKDVLMISRTPEVTCVVIDVSHEDPEVKFNWYVDGVEVHNAKTKPREEQYNSTYRVVSVLPVLHRDWLNGKEYKCKVSNKALPKPIEKTISKAKGQRREPQVYTLPPSREEMTKNQVSLTCLVKGFYPSDIAVEWESNGQPENNYKTTPPVLDSDGSFFLYSKLTVDKSRWQQGNVFSCSVMHEALHNHYTQKSLSLSP
light: QSALTQPPSASGSPGQTVTISCTGTRYDVGYYEYVSWYQQHPGKAPKLMIYETSKRLSGVPDRFSGSKSGNTASLTVSGLQAEDEADYYCSSYRYEHQVSFGGGTKLTVLGQPKAAPSVTLFPPSSEELQANKATLVCLISDFYPGAVTVAWKADSSPVKAGVETTTPSKQSNNKYAASSYLSLTPEQWKSHRSYSCQVTHEGSTVEKTVAPTECS
Take B1: the relative binding amount was 7.14 in the assay with hFcgRIIb [1]; 0.05 with hFcgRIIaH [2]; -0.01 with hFcgRIIIaV [3]; -0.01 with hFcgRIIaR [4]; -0.03 in the assay with hFcgRIIIaF [5]; 0.06 with hFcgRIa [6]. Besides, the “binding per 1RU of antibody” value with hFcgRIIb [7] is 0.0782 RU; with hFcgRIIaH [8], 0.003 RU; with hFcgRIIIaV [9], -0.0007 RU; in the assay with hFcgRIIaR [10], -0.0004 RU; with hFcgRIIIaF [11] it was -0.0007 RU; with hFcgRIa [12], 0.0049 RU. The molecule also gave a Kd with human FcRn of 966 nM.

B2: A375-SCF039/B167-Lamlib (antibody, human IgG1, lambda)
heavy: EVQLVESGGGLVKPGGSLRLSCAASGFTFSTFTMNWVRQAPGKGLEWVSSISSKSTYIEYADSFKVRFTISRDNAKNSLYLQMNSLRAEDTAVYYCARYGAKNFLNWVFDYWGQGTLVTVSSASTKGPSVFPLAPSSKSTSGGTAALGCLVKDYFPEPVTVSWNSGALTSGVHTFPAVLQSSGLYSLSSVVTVPSSSLGTQTYICNVNHKPSNTKVDKKVEPKSCDKTHTCPPCPAPELWNGPSVFLFPPKPKDTLMISRTPEVTCVVVDVSDEDPEVKFNWYVDGVEVHNAKTKPREELYNSTYRVVSVLTVLHQDWLNGKEYKCKVSNTALPKPIEKTISKAKGQRREPQVYTLPPSREEMTKNQVSLTCLVKGFYPSDIAVEWESNGQPENNYKTTPPVLDSDGSFFLYSKLTVDKSRWQQGNVFSCSVMHEALHNHYTQKSLSLSP
light: QSALTQPPSASGSPGQTVTISCTGTRYDVGYYEYVSWYQQHPGKAPKLMIYETSKRLSGVPDRFSGSKSGNTASLTVSGLQAEDEADYYCSSYRYEHQVSFGGGTKLTVLGQPKAAPSVTLFPPSSEELQANKATLVCLISDFYPGAVTVAWKADSSPVKAGVETTTPSKQSNNKYAASSYLSLTPEQWKSHRSYSCQVTHEGSTVEKTVAPTECS
On to B2, for which the relative binding amount with hFcgRIIb [1] amounted to 4.85; in the assay with hFcgRIIaH [2] it was 0.94; with hFcgRIIIaV [3], 0.02; in the assay with hFcgRIIaR [4], 1.17; with hFcgRIIIaF [5], 0.04; in the assay with hFcgRIa [6], 0.02. Besides, the “binding per 1RU of antibody” value amounted to 0.0531 RU with hFcgRIIb [7]; 0.0535 RU with hFcgRIIaH [8]; 0.0013 RU in the assay with hFcgRIIIaV [9]; 0.0542 RU with hFcgRIIaR [10]; 0.0008 RU with hFcgRIIIaF [11]; 0.0018 RU with hFcgRIa [12]. The molecule also came in with a Kd in the assay with human FcRn of 1090 nM.

B3: A375-SCF039a/B167-Lamlib (antibody, human IgG1, lambda)
heavy: EVQLVESGGGLVKPGGSLRLSCAASGFTFSTFTMNWVRQAPGKGLEWVSSISSKSTYIEYADSFKVRFTISRDNAKNSLYLQMNSLRAEDTAVYYCARYGAKNFLNWVFDYWGQGTLVTVSSASTKGPSVFPLAPSSKSTSGGTAALGCLVKDYFPEPVTVSWNSGALTSGVHTFPAVLQSSGLYSLSSVVTVPSSSLGTQTYICNVNHKPSNTKVDKRVEPKSCDKTHTCPPCPAPELWNGPSVFLFPPKPKDTLMISRTPEVTCVVVDVSDEDPEVKFNWYVDGVEVHNAKTKPREELYNSTYRVVSVLTVLHQDWLNGKEYKCKVSNTALPKPIEKTISKAKGQRREPQVYTLPPSREEMTKNQVSLTCLVKGFYPSDIAVEWESNGQPENNYKTTPPVLDSDGSFFLYSKLTVDKSRWQQGNVFSCSVMHEALHNHYTQKSLSLSP
light: QSALTQPPSASGSPGQTVTISCTGTRYDVGYYEYVSWYQQHPGKAPKLMIYETSKRLSGVPDRFSGSKSGNTASLTVSGLQAEDEADYYCSSYRYEHQVSFGGGTKLTVLGQPKAAPSVTLFPPSSEELQANKATLVCLISDFYPGAVTVAWKADSSPVKAGVETTTPSKQSNNKYAASSYLSLTPEQWKSHRSYSCQVTHEGSTVEKTVAPTECS
For B3, the relative binding amount with hFcgRIIb [1] was determined as 4.93; with hFcgRIIaH [2] it was 0.96; with hFcgRIIIaV [3] it was 0.02; in the assay with hFcgRIIaR [4], 1.2; in the assay with hFcgRIIIaF [5] it was 0.06; in the assay with hFcgRIa [6], 0.02. The “binding per 1RU of antibody” value was determined as 0.054 RU with hFcgRIIb [7]; 0.0542 RU with hFcgRIIaH [8]; 0.0013 RU with hFcgRIIIaV [9]; 0.0554 RU in the assay with hFcgRIIaR [10]; 0.0012 RU with hFcgRIIIaF [11]; 0.0018 RU with hFcgRIa [12]. For the same molecule, the Kd in the assay with human FcRn turned out to be 1110 nM.

B4: A375-SCF033/B167-Lamlib (antibody, human IgG1, lambda)
heavy: EVQLVESGGGLVKPGGSLRLSCAASGFTFSTFTMNWVRQAPGKGLEWVSSISSKSTYIEYADSFKVRFTISRDNAKNSLYLQMNSLRAEDTAVYYCARYGAKNFLNWVFDYWGQGTLVTVSSASTKGPSVFPLAPSSKSTSGGTAALGCLVKDYFPEPVTVSWNSGALTSGVHTFPAVLQSSGLYSLSSVVTVPSSSLGTQTYICNVNHKPSNTKVDKKVEPKSCDKTHTCPPCPAPEYLGDDSVFLFPPKPKDVLMISRTPEVTCVVVDVSHEDPEVKFNWYVDGVEVHNAKTKPREEQYNSTYRVVSVLPVLHRDWLNGKEYKCKVSNKALPKPIEKTISKAKGQRREPQVYTLPPSREEMTKNQVSLTCLVKGFYPSDIAVEWESNGQPENNYKTTPPVLDSDGSFFLYSKLTVDKSRWQQGNVFSCSVMHEALHNHYTQKSLSLSP
light: QSALTQPPSASGSPGQTVTISCTGTRYDVGYYEYVSWYQQHPGKAPKLMIYETSKRLSGVPDRFSGSKSGNTASLTVSGLQAEDEADYYCSSYRYEHQVSFGGGTKLTVLGQPKAAPSVTLFPPSSEELQANKATLVCLISDFYPGAVTVAWKADSSPVKAGVETTTPSKQSNNKYAASSYLSLTPEQWKSHRSYSCQVTHEGSTVEKTVAPTECS
In the case of B4, the relative binding amount with hFcgRIIb [1] came to 8.94; in the assay with hFcgRIIaH [2], 0.18; in the assay with hFcgRIIIaV [3], 0; with hFcgRIIaR [4], 0.55; in the assay with hFcgRIIIaF [5], 0; with hFcgRIa [6] it was 0.04. Moreover, the “binding per 1RU of antibody” value in the assay with hFcgRIIb [7] amounted to 0.0979 RU; in the assay with hFcgRIIaH [8] it was 0.0103 RU; with hFcgRIIIaV [9], 0.0002 RU; with hFcgRIIaR [10], 0.0255 RU; with hFcgRIIIaF [11] it was 0 RU; with hFcgRIa [12], 0.0033 RU. Further, the Kd in the assay with human FcRn is 874 nM.
